# Measured values reported in patent US20190262327A1, “COMBINATION OF A BACE INHIBITOR AND AN ANTIBODY OR ANTIGEN-BINDING FRAGMENT FOR THE TREATMENT OF A DISORDER ASSOCIATED WITH THE ACCUMULATION OF AMYLOID BETA” (ASTRAZENECA AB, priority 2016, published 2019).
# “Also recorded” adds a separate entry of the source.
# B1: Abet0380-GL IgG1-TM: germlined Abet0380; VH SEQ ID NO: 524, VL SEQ ID NO: 533; human IgG1 triple mutant format (antibody, listed as Homo sapiens, V domains shown)
# VH: EVQLLESGGGLVQPGGSLRLSCAASMGNFNYQTMWWVRQAPGKGLEWVSVIGKTNENIAYADSVKGRFTISRDNSKNTLYLQMNSLRAEDTAVYYCAREWMDHSRPYYYYGMDVWGQGTLVTVSS
# VL: SYELTQPPSVSVSPGQTASITCSGHNLEDKFASWYQQKPGQSPVLVIYRDDKRPSGIPERFSASNSGHTATLTISGTQAMDEADYYCSSQDTVTRVFGGGTKLTVL
# modifications: human IgG1 triple mutant constant region; /note=“Abet0380-GL”
# notes: germlined Abet0380; human IgG1 triple mutant format
# Target: T1, Amyloid beta 1-42 peptide (Rattus norvegicus, UniProt P08592)
# T1 construct: Measurement of free Amyloid beta 1-42 peptide in rat CSF; from tissue; host or cells: CSF and brain homogenate of Sprague-Dawley rats
# T1 sequence (P08592 672-713 limits assumed): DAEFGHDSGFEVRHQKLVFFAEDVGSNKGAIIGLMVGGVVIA
# Experiment: Free Amyloid beta 1-42 peptide in rat CSF (immunoprecipitation + ELISA)
# Type: in vivo
# Conditions: for reduction of free Amyloid beta 1-42 peptide in CSF vs vehicle control: rats, 168 h after second dose
# Protocol: Eight-week old male albino Harlan Sprague-Dawley rats (n=8-12) received a single dose of Abet0380-GL IgG1-TM antibody by intravenous injection with a dosing vehicle of 25 mM Histidine, 7% Sucrose, 0.02% p80 surfactant, pH 6.0 at 5 ml/kg. Dosing solutions were made just before dosing. Animals were anaesthetized at the time indicated and cerebrospinal fluid (CSF) was aspirated from the cistema magna. CSF samples were centrifuged for 10 minutes at approximately 3000× g at 4° C. within 20 minutes of sampling to remove cells or debris. Samples were then frozen on dry ice and stored at −70° C. for subsequent analysis.
# Measurement of free Amyloid beta 1-42 peptide in rat CSF was conducted using immunoprecipitation to remove Abet0380-GL bound Amyloid beta 1-42 peptide, followed by analysis by a commercial ELISA kit obtained from Invitrogen. Briefly, a solution of protein A beads (Dynabeads® Protein A; Invitrogen, UK; cat: 100-02D) was added to a 96 well non-skirted plate (polypropylene 0.2 ml; VWR International, UK; cat: 10732-4828) and washed twice with TBST (50 mM TBS; Sigma, UK; cat: T6664 plus 0.1% Tween20) using a magnet (DynaMag™ 96 side; Invitrogen, UK; cat: 123.31 D) to separate the beads from the solution. Thawed rat CSF samples (40 μl) were added to each well and incubated at […] with tilt rotation for 1 hour. The beads were then pelleted using the magnet and 30 μl of immunoprecipitated CSF samples were transferred to a 96 well plate from the ELISA kit (mouse Amyloid beta (1-42) colorimetric ELISA kit; Invitrogen, UK; cat: KMB3441) with 70 μl of the Standard Diluent Buffer already added (supplemented with protease inhibitor; Roche, UK; cat: 11836153001). Calibration standard samples were added to the plate in duplicate and the plate was incubated for 2 hours at room temperature with shaking. The plate was washed 4 times with 400 µl of wash buffer, 100 μl of the detection antibody solution was added to each well and the plate was incubated for 1 hour at room temperature with shaking. Again, the plate was washed 4 times with 400 μl of wash buffer, 100 μl of the secondary antibody working solution was added to each well and the plate was incubated for 30 minutes at room temperature with shaking. Finally, the plate was washed 4 times with 400 μl of wash buffer, 100 μl of stabilized Chromogen was added to each well and the plate was incubated for 30 minutes at room temperature in the dark. To stop the reaction, 100 μl of Stop Solution was added to each well and the plate was read within 2 hours at an absorbance of 450 nm. Single CSF samples were analyzed and data analysis was performed using Prism 4 (GraphPad, USA) with one-way ANOVA on log transformed data without adjustment for multiple comparisons.
# To further investigate the effect of the Abet0380-GL IgG1-TM antibody in vivo, rats were administered weekly doses of 0.25, 0.5, 1, 5 or 10 mg/kg over 14 days. Animals were euthanized 168 hours after the second dose to measure levels of free Amyloid beta 1-42 peptide in CSF as well as total Amyloid beta 1-42 or 1-40 peptides in brain tissue.
# The ability of antibody Abet0144-GL to sequester amyloid beta 1-42 was investigated in a PK-PD study in normal rats. Rats were intravenously administered Abet0144-GL (10 or 40 mg/kg) or vehicle weekly for 2 weeks (on days 0 and 7), and sacrificed a week after the 2nd dose. […] Free and total amyloid beta 1-42 levels were measured using assays described above.
molecule,measurement,setting,value
B1,effect on free Amyloid beta 1-42 in CSF,"Sprague-Dawley rats, 0.25-10 mg/kg weekly over 14 days",dose-dependent decrease; also recorded: dose-dependent reduction
same,reduction of free Amyloid beta 1-42 peptide in CSF vs vehicle control,"0.25 mg/kg weekly over 14 days, not statistically significant",14%
same,reduction of free Amyloid beta 1-42 peptide in CSF vs vehicle control,0.5 mg/kg weekly over 14 days,47%
same,reduction of free Amyloid beta 1-42 peptide in CSF vs vehicle control,1 mg/kg weekly over 14 days,61%
